{"source": "paper PMC11246219", "biological_target": "PELI2 (UniProt Q9HAT8)", "assay": "anti-FLAG co-IP, phospho-STING blot quantified", "data": [{"substance": "STING (from UniProt Q86WV6) STING-5T>A", "values": [{"measurement": "binding against the reference", "setting": "reference: STING only-T354, sites T354", "result": "lost"}, {"measurement": "binding against the reference", "setting": "reference: STING only-T356, sites T356", "result": "lost"}]}]}
